Results on 8 molecules are retold here after patent US20210347873A1 (SHANGHAI PHARMAEXPLORER, published 2021).

The target in test [1] is human BLyS (full length, arginine to histidine at position 132) on CHO-K1 cells (human) (UniProt Q9Y275). Kind of test: flow cytometry, CHO-K1 hBLyS cells, antibody 0.107 nM. A general note: Flow cytometry measures light scatter and fluorescence of single cells or particles in a stream.
Test [2] has as its target cynomolgus BLyS (full length, arginine to histidine at position 132) on CHO-K1 cells (cynomolgus). Nature of the test: flow cytometry, CHO-K1 cynoBLyS cells, antibody 2.67 nM.
For test [3] the target is unchanged. Kind of test: flow cytometry, CHO-K1 cynoBLyS cells, antibody 66.7 nM.
The target is the same in test [4]. Nature of the test: flow cytometry, CHO-K1 cynoBLyS cells, antibody 0.534 nM.
For test [5], the target named is biotinylated hBLyS-ECD (human) (UniProt Q9Y275). Kind of test: ELISA, biotinylated hBLyS-ECD captured on streptavidin; antibody 0.107 nM. For orientation: In an ELISA, binding on a coated surface is turned into a signal by an enzyme label.
Sequence of biotinylated hBLyS-ECD (human) (Q9Y275 134-285): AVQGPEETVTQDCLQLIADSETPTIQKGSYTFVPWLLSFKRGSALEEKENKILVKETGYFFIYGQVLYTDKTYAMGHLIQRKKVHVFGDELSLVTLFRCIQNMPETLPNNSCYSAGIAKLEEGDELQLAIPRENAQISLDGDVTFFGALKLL
For test [6] the target is unchanged. Kind of test: blocking ELISA: biotinylated hBLyS-ECD on coated BAFF R, antibody 0.032 nM.
Test [7] shares this target. Nature of the test: blocking ELISA: biotinylated hBLyS-ECD on coated BAFF R, antibody 0.0064 nM.
For test [8] the target is unchanged. Kind of test: blocking ELISA: biotinylated hBLyS-ECD on coated BAFF R, antibody 0.00128 nM.
Test [9] deals with extracellular domain of human BLyS protein (hBLyS-ECD), His-tagged, Ala134-Leu285 (human, UniProt Q9Y275 134-285). Kind of test: cell-based or functional assay.
Sequence of extracellular domain of human BLyS protein (hBLyS-ECD), His-tagged, Ala134-Leu285 (Q9Y275 134-285): as above
Test [10] addresses T1, biotinylated hBLyS-ECD (human, UniProt Q9Y275 134-285, biotinylated with Biotin-X-X-NHS (molar ratio 7:1); sites not stated).
T1 construct: also called biotinylated immunogen; biotinylated hBLvS-ECD
Nature of the test: ELISA on captured biotinylated hBLyS-ECD; antibody 2.67 nM.

Test [11] deals with T1, biotinylated hBLyS-ECD. Kind of test: ELISA on captured biotinylated hBLyS-ECD; antibody 66.7 nM.
In test [12] the target is T1, biotinylated hBLyS-ECD. Nature of the test: ELISA on captured biotinylated hBLyS-ECD; antibody 2.67 nM. The source holds these as a separate data set.
Test [13] has as its target T1, biotinylated hBLyS-ECD. Nature of the test: ELISA on captured biotinylated hBLyS-ECD; antibody 0.107 nM.
Test [14] has as its target T1, biotinylated hBLyS-ECD. Kind of test: ELISA on captured biotinylated hBLyS-ECD; antibody 0.00427 nM.
The target of test [15] is T1, biotinylated hBLyS-ECD. Nature of the test: BAFF R-coated ELISA, biotinylated hBLyS-ECD bound in presence of antibody 20 nM.
For test [16], the target named is T1, biotinylated hBLyS-ECD. Nature of the test: BAFF R-coated ELISA, biotinylated hBLyS-ECD bound in presence of antibody 0.032 nM.
Test [17] has as its target T2, biotinylated hBLyS-ECD (human, UniProt Q9Y275 134-285, biotinylated with Biotin-X-X-NHS (molar ratio 7:1), sites not stated).
T2 construct: The hBLyS-ECD of Embodiment 1 after biotinylation (Embodiment 2); also called biotinylated immunogen; BLyS protein; not shown: His tag of the pCPC vector
Kind of test: ELISA: biotinylated hBLyS-ECD captured on streptavidin, antibody titrated, HRP secondary antibody [label printed at the top of D00004]. How it is done:
(§1) Streptavidin was first diluted to a final concentration of 1.0 μg/mL with PBS, and then 50 μL of diluted streptavidin per well was aliquoted into 96-well ELISA plate, which was subsequently sealed with plastic film and incubated at 4° C. overnight. On the next day the plate was washed four times with the plate washing buffer [PBS buffer containing 0.05% (v/v) Tween20] and added with the blocking solution [PBS buffer containing 0.05% (v/v) Tween20 and 1% (w/w) BSA] and blocked for 2 hours at 37° C. The blocking solution was removed, the biotinylated hBLyS-ECD prepared in Embodiment 2 was diluted with PBS to a final concentration of 50 ng/mL and then aliquoted into the 96-well ELISA plate at 50 μL per well and incubated for 1 hour at 37° C. After rinsing the plate four times with the plate washing buffer [PBS buffer containing 0.05% (v/v) Tween20], 100 μl of the purified lead antibody harvested in Embodiment 1 and 2 was pipetted into each well. After incubation for 1 hour at 37° C., the plate was rinsed four times with the plate washing buffer [PBS buffer containing 0.05% (v/v) Tween20]. HRP-labeled (horseradish peroxidase) secondary antibody (purchased from Sigma) was added in and incubated at 37° C. for 1 hour. The plate was then rinsed four times with the plate washing buffer [PBS buffer containing 0.05% (v/v) Tween20]. 100 μL of TMB substrate was aliquoted into each well and after incubation for 5 minutes at room temperature, 100 μL of stop solution (1.0 N HCl) was aliquoted into each well. A₄₅₀ₙₘ values were read via an ELISA plate reader (SpectraMax M5e purchased from Molecular Devices) and the results were shown in FIGS. 5A-5B and Table 10.

In test [18] the target is T2, biotinylated hBLyS-ECD. Nature of the test: ELISA: biotinylated hBLyS-ECD captured on streptavidin, antibody titrated, HRP secondary antibody. As for the experimental part:
as §1, with “The plate was then rinsed four times with the plate washing buffer [PBS buffer containing 0.05% (v/v) Tween20]. 100 μL of TMB substrate was aliquoted into each well and after incubation for 5 minutes at room temperature, 100 μL of stop solution (1.0 N HCl) was aliquoted into each well.” left out

T1 sequence (Q9Y275 134-285): as above
T2 sequence (Q9Y275 134-285): as above
Sequence of cynomolgus BLyS (full length, arginine to histidine at position 132) on CHO-K1 cells (cynomolgus) (Q9Y275 other isoform, or with tags, fused parts or gaps limits assumed): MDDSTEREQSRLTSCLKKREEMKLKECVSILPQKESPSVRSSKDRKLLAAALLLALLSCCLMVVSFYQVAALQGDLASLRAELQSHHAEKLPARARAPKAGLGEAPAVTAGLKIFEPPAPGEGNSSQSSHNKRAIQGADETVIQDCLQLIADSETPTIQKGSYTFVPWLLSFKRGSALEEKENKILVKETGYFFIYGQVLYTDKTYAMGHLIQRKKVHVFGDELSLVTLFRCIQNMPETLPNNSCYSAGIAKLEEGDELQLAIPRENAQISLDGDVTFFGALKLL
Sequence of human BLyS (full length, arginine to histidine at position 132) on CHO-K1 cells (human) (Q9Y275 whole entry R130H): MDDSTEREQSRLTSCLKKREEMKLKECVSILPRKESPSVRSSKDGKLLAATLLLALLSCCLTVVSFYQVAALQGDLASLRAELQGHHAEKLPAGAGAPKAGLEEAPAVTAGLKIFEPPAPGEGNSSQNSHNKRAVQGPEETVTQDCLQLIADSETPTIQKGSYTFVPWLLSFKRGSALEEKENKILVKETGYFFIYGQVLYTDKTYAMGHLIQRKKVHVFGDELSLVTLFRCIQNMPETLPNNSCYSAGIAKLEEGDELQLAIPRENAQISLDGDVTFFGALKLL

For the molecule mIgG Control (antibody), the MFI came out at 31.6 MFI in [1], 21.2 MFI in test [2], 21.6 MFI in test [3] and 20 MFI in [4]. In addition, the OD450 nm worked out at 0.0562 in [5], 1.45 OD450 nm in test [6], 1.4 OD450 nm in [7] and 1.42 OD450 nm in [8].

As to hIgG Control (antibody), the MFI in [1] worked out at 32.9 MFI; in test [2], 22.7 MFI; in [3] it was 44.2 MFI; in test [4], 22.6 MFI. The OD450 nm was 0.0905 in test [5], 1.11 OD450 nm in test [6], 1.14 OD450 nm in [7] and 1.13 OD450 nm in test [8].

B1: c97A3C2H4 (antibody, V domains shown)
VH: EVKLVESGGGLVQPGGSLKLSCAASGFTFSTYTMSWVRQTPEKRLEWVAYISYGGGSTSYPDTVKGRFTISRDNAKNTLYLQMSSLKSEDTAIYYCTRHVTVVENSMDYWGQGTSVTVSS
VL: DILLTQSPDILSVSPGERVSFSCRASQSIGTSIHWYQQRTNGSPRLLIKYVSESFSGTPSRFSGSGSGTAFTLTINSVESEDIADYYCQQTHSWPWTFGGGTKLEIK
notes: also called chimeric antibody c97A3C2H4
As for B1, in test [9], the “OD450 nm (as headed), mouse B lymphocyte proliferation; antibody 0 nM” value worked out at 4440; the “OD450 nm (as headed), mouse B lymphocyte proliferation; antibody 0.000256 nM” value came to 5020; the “OD450 nm (as headed), mouse B lymphocyte proliferation; antibody 0.00128 nM” value is 4870; the “OD450 nm (as headed), mouse B lymphocyte proliferation; antibody 0.0064 nM” value stood at 5280. Besides, in test [9], the “OD450 nm (as headed), mouse B lymphocyte proliferation; antibody 0.032 nM” value stood at 4450; the “OD450 nm (as headed), mouse B lymphocyte proliferation; antibody 0.16 nM” value amounted to 3740; the “OD450 nm (as headed), mouse B lymphocyte proliferation; antibody 0.8 nM” value came to 1460; the “OD450 nm (as headed), mouse B lymphocyte proliferation; antibody 4 nM” value stood at 578. In [9], the “OD450 nm (as headed), mouse B lymphocyte proliferation; antibody 20 nM” value came to 424 and the “OD450 nm (as headed), mouse B lymphocyte proliferation; antibody 100 nM” value was found to be 444. Moreover, the OD450 nm with biotinylated hBLyS-ECD [10] turned out to be 3.32 OD450 nm. Further, in the test with biotinylated hBLyS-ECD [11], the OD450 nm was 3.3 OD450 nm. Further, the OD450 nm in the test with biotinylated hBLyS-ECD [12] was found to be 2.25 OD450 nm. Besides, in the test with biotinylated hBLyS-ECD [13], the OD450 nm amounted to 1.19 OD450 nm. For the same molecule, the OD450 nm with biotinylated hBLyS-ECD [14] is 0.25 OD450 nm. Further, the OD450 nm with biotinylated hBLyS-ECD [15] was determined as 0.717 OD450 nm. In the test with biotinylated hBLyS-ECD [16], the OD450 nm is 1.84 OD450 nm.

B2: 97A3C2H4 (antibody, V domains shown)
VH: B1 VH
VL: B1 VL
notes: Mouse hybridoma antibody purified on Protein G
Broadly, the EC50 (read off the curve) is the midpoint of the concentration-response curve. Take B2: the “EC50 (read off the curve)” value with biotinylated hBLyS-ECD [17] is about 0.2 nM.

B3: 111D10D6G3 (antibody, V domains shown)
VH: QVQLQQPGAELVKPGASVKMSCKASGYTFTRHWITWVKQRPGQGLEWIGDIFPGSGSINYNEKFKSEATLTVEKSSSTAYMQLSSLTSEDSAVYYCARGDVDVWGTGTTVTVSS
VL: DIQMTQSPSSLSASLGERVSLTCRASQEIRGYLSWLQQKPNGTIKRLIYAASTLDSGVPKRFSATRSGSDFSLTISSLESEDFADYYCLQYASYPFTFGSGTKLEIK
notes: as for B2
For B3, the concentration giving a half-maximal response (EC50 (read off the curve)) in the test with biotinylated hBLyS-ECD [17] is about 0.2 nM.

B4: L9G7 (antibody, human IgG1, V domains shown)
VH: QIQLVQSGAEVKKPGASVKVSCKASGYTFTSYGISWVRQAPGQGLEWMGWISAYNGNTNYAQKLQGRVTMTTDTSTSTAYMELRSLRSDDTAVYYCARTYYDILTGYYYYGMDVWGQGTTVTVSS
VL: EIVLTQSPGTLSLSPGERATLSCRTSQSVDTYLAWYQQKPGQAPRLLIYDASNRATGIPARFSGSGSGTDFTLTISSLEPEDFAVYYCQQRSNWPLTFGGGTKVEIK
As for B4, in the test with biotinylated hBLyS-ECD [18], the concentration giving a half-maximal response (EC50 (read off the curve)) was about 0.2 nM.

B5: L1D12 (antibody, human IgG1, V domains shown)
VH: QVQLVQSGGGLVQPGGSLRLSCAASGFTVSSNYMSWVRQAPGKGLEWVSVIYSGGSTYYADSVKGRFTISRDNSKNTLYLQMNSLRAEDTAVYYCARGFHDILTGYGMDVWGQGTTVTVSS
VL: SSELTQDPAVSVALGQTVRITCQGDSLRNYYAGWYQQKPGQAPVLVIYGKNNRPSGIPDRFSGSSSGNTASLTITGTQAEDEADYYCSSRDNSGTHLVEFGGGTKLTVL
notes: also called LID12
B5: in the test with biotinylated hBLyS-ECD [18], the 50% effective concentration (EC50 (read off the curve)) is about 0.1 nM.

B6: c8E7D9C7F5 (antibody, V domains shown)
VH: QVQLQQSGVELARPGASVKLSCKASGYTFTSYGISWVKQRTGQALEWIGEIYPRSGNTYYNEKFKGKATLTADKSSSTAYMELRSLTSEDSAVYFCARSGPITTLVATDYGMDYWGQGTSVTVSS
VL: DIVLTQSPASLAVSLGQRATISCRASKSVSTSSYSYMHWYQQKPGQPPKLLIKFASNLESGVPARFSGSGSGTDFTLNIHPVEEEDAATYYCQHSREFPYTFGGGTKLEIK
notes: also called chimeric antibody c8E7D9C7F5
On to B6, for which, in test [9], the “OD450 nm (as headed), mouse B lymphocyte proliferation; antibody 0 nM” value is 4750; the “OD450 nm (as headed), mouse B lymphocyte proliferation; antibody 0.000256 nM” value worked out at 4970; the “OD450 nm (as headed), mouse B lymphocyte proliferation; antibody 0.00128 nM” value was 5150; the “OD450 nm (as headed), mouse B lymphocyte proliferation; antibody 0.0064 nM” value turned out to be 5280. Also, in [9], the “OD450 nm (as headed), mouse B lymphocyte proliferation; antibody 0.032 nM” value was determined as 4620; the “OD450 nm (as headed), mouse B lymphocyte proliferation; antibody 0.16 nM” value is 4110; the “OD450 nm (as headed), mouse B lymphocyte proliferation; antibody 0.8 nM” value was determined as 2070; the “OD450 nm (as headed), mouse B lymphocyte proliferation; antibody 4 nM” value came to 488. In test [9], the “OD450 nm (as headed), mouse B lymphocyte proliferation; antibody 20 nM” value is 367 and the “OD450 nm (as headed), mouse B lymphocyte proliferation; antibody 100 nM” value amounted to 345. In the test with biotinylated hBLyS-ECD [10], the OD450 nm is 3.24 OD450 nm. In the test with biotinylated hBLyS-ECD [11], the OD450 nm amounted to 3.31 OD450 nm. Moreover, the OD450 nm in the test with biotinylated hBLyS-ECD [12] came out at 2.21 OD450 nm. Also, in the test with biotinylated hBLyS-ECD [13], the OD450 nm turned out to be 1.28 OD450 nm. The OD450 nm with biotinylated hBLyS-ECD [14] was 0.176 OD450 nm. Also, in the test with biotinylated hBLyS-ECD [15], the OD450 nm was 0.66 OD450 nm. For the same molecule, in the test with biotinylated hBLyS-ECD [16], the OD450 nm is 1.97 OD450 nm.
